As usually defined, the IC50 is the concentration needed to halve the response being measured.

This note sets out measurements from patent US9012420B2, “Aptamer for chymase, and use thereof” (Ribomic Inc., priority 2009, dated 2015).

T1: chymase (recombinant) (UniProt P23946 P23946:22-247)
T1 sequence: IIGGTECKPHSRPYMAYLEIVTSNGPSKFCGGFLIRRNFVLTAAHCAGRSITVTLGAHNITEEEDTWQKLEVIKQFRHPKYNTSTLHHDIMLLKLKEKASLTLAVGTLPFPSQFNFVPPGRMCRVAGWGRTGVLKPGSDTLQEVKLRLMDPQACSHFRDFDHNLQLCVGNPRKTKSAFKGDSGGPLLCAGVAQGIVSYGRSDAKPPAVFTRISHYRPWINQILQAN

B1: 56(31) (ssRNA)
RNA: GGGUUAGAUAGAGUUAAAAACCC
modifications: idT-G(M)G(M)G(M)U(F)U(F)AG(M)AU(F)A(M)GAG(M)U(F)U(F)A(M)A(M)A(M)A(M)A(M)C(F)C(F)C(F)-idT (M=2'-OMe, F=2'-F)
B2: 56(38) (ssRNA)
RNA: GGGUUAGAUAGAGUUAAAAACCC
modifications: idT-G(M)G(M)G(M)U(F)U(F)sAsGAU(F)A(M)GAG(M)U(F)U(F)A(M)A(M)A(M)A(M)A(M)C(F)C(F)C(F)-idT (M=2'-OMe, F=2'-F, s=PS)
B3: 61(1) (ssRNA)
RNA: GGGUUAGAUAGAUUUAAAAACCC
modifications: G(M)G(M)G(M)U(F)U(F)AG(M)A(M)U(F)A(M)GAU(F)U(F)U(F)A(M)A(M)A(M)A(M)A(M)C(F)C(F)C(F) (M=2'-OMe, F=2'-F)
B4: 56(32) (ssRNA)
RNA: GGGUUAGAUAGAGUUAAAAACCC
modifications: idT-G(M)G(M)G(M)U(F)U(F)AGAU(F)A(M)GAG(M)U(F)U(F)A(M)A(M)A(M)A(M)A(M)C(F)C(F)C(F)-idT (M=2'-OMe, F=2'-F)
B5: SEQ 72 (mixed)
mixed: GGGTTAGAUAGAGTUAAAAACCC
modifications: idT-G(M)G(M)G(M)ttAG(M)A(M)U(F)A(M)GAG(M)tU(F)A(M)A(M)A(M)A(M)A(M)ccc-idT (lower case DNA)
B6: 72(1) (mixed)
mixed: GGGTTAGAUAGAGTUAAAAACCC
modifications: idT-G(M)G(M)G(M)ttAG(M)aU(F)A(M)GAG(M)tU(F)A(M)A(M)A(M)A(M)A(M)ccc-idT (lower case DNA)
B7: SEQ 71 (mixed)
mixed: GGGUUAGAUAGAGTUAAAAACCC
modifications: idT-G(M)G(M)G(M)U(F)U(F)AG(M)A(M)U(F)A(M)GAG(M)tU(F)A(M)A(M)A(M)A(M)A(M)C(F)C(F)C(F)-idT (lower case DNA)
B8: SEQ 70 (mixed)
mixed: GGGTTAGAUAGAGUUAAAAACCC
modifications: idT-G(M)G(M)G(M)ttAG(M)A(M)U(F)A(M)GAG(M)U(F)U(F)A(M)A(M)A(M)A(M)A(M)C(F)C(F)C(F)-idT (lower case DNA)
B9: SEQ 43 (ssRNA)
RNA: GGGAGCAGGAGAGAGGUCAGAUGAUGCCAAGAUAGAUUUAAAUGGCGUUUGGGCCUAUGCGUGCUAGUGUGA
modifications: 2'-F pyrimidines
B10: SEQ 48 (ssRNA)
RNA: GGGAGCAGGAGAGAGGUCAGAUGUGAAGAUAGAGAUAAAUCACAUACAGUCGGCCUAUGCGUGCUAGUGUGA
modifications: 2'-F pyrimidines
B11: SEQ 44 (ssRNA)
RNA: GGGAGCAGGAGAGAGGUCAGAUGUUAGACCAAAGCAUAGGAGAUAGAGUUAAACCUAUGCGUGCUAGUGUGA
modifications: 2'-F pyrimidines
B12: SEQ 41 (ssRNA)
RNA: GGGAGCAGGAGAGAGGUCAGAUGGUGAGAUAGAGUUAAACACCACAAUAGUAGCCUAUGCGUGCUAGUGUGA
modifications: 2'-F pyrimidines
B13: SEQ 38 (ssRNA)
RNA: GGGAGCAGGAGAGAGGUCAGAUGGAUAGAGUUAAGAUCUGGCUGGCGCAUUAGCCUAUGCGUGCUAGUGUGA
modifications: 2'-F pyrimidines

For one series, the target named is T1, chymase (recombinant). The experiment in a line: inhibition; SPR ++. Particulars: tags: SIGMA, expressed in yeast. On the procedure: (§1) Here, Suc is a protecting succinyl group, and MCA is a 4-methylcoumaryl-7-amide group; upon cleavage of the C-terminal side of phenylalanine, AMC (7-amino-4-methyl-coumarine) is released. By detecting the fluorescence of this AMC, the enzyme activity of chymase can be determined. The assay was performed using a 96-well plate (F16 Black Maxisorp Fluoronunc, manufactured by Nunc), with a reaction mixture volume of 100 μL, in solution C as a buffer solution. First, each nucleic acid was serially diluted to 0.0027-2 μM concentrations in solution C to obtain 50 μL solutions. After 10 μL of the 1 mM substrate prepared in solution C was added thereto, the plate was set to the microplate reader SpectraMax190 (manufactured by Molecular Devices Corporation), and incubated at 37° C. for 5 minutes. Separately, 0.05 μg (or 0.005 μg) of chymase (recombinant, manufactured by SIGMA) was diluted in solution C to obtain a 40 μL chymase solution, and incubated at 37° C. for 5 minutes. The chymase solution was added to the mixture of the nucleic acid and substrate to initiate an enzyme reaction. The final chymase concentration in the reaction mixture was 16.7 nM (or 1.67 nM), the final substrate concentration being 100 μM. The plate containing the reaction mixture was set to the microplate reader SpectraMax190 (manufactured by Molecular Devices Corporation), and examined for time-dependent changes in the fluorescence intensity at 37° C. for 5 minutes (or 30 minutes) (excitation wavelength 380 nm, detection wavelength 460 nm). A linear approximation of the increase in the fluorescence of the AMC released from the substrate by chymase activity was generated, and its slope was taken as the initial velocity […]. For control, samples were treated and analyzed in the same manner in two cases: use of a 30N or 40N (a nucleotide of 30 or 40 consecutive bases represented by N; N is A, G, C or T) nucleic acid pool (negative control), and use of chymostatin, a known chymotrypsin-like serine protease inhibitor (positive control). Taking the initial reaction velocity without the nucleic acid and inhibitor (V_0) as a 100% enzyme activity, the inhibitory rate of each test substance was calculated using the following equation: […]
The chymase inhibitory activity was measured in the same manner as in Example 3.
In the case of B1, the IC50 was 23 nM.
The same measure, in the same setting: with B2 the figure was 19 nM; with B3, 78 nM; with B4, 17 nM.
For B5, the IC50 was found to be 20 nM.
On the same count and under the same terms, in the case of B6 it was 13 nM.
B7: the IC50 was determined as 28 nM.
Still for that read-out and setting: in the case of B8 it was 27 nM.

Another series has as its target T1, chymase (recombinant). The experiment in a line: inhibition; SPR ++ (Table 2). The note with it: tags: SIGMA, expressed in yeast. On the procedure:
as §1
For B9, the IC50 is 81 nM.
Turning to B10, the IC50 turned out to be 95 nM.
The same measure, in the same setting: in the case of B11 it was 49 nM; in that of B12, 60 nM.
Consider B13, for which the IC50 turned out to be 50 nM.
